{"source": "IntAct's records for PubMed 17632125", "parents": {"B1": {"name": "UBP3-associated protein BRE5 (Saccharomyces cerevisiae), P53741 (parent)", "chain": "MGVTVQDICFAFLQNYYERMRTDPSKLAYFYASTAELTHTNYQSKSTNEKDDVLPTVKVTGRENINKFFSRNDAKVRSLKLKLDTIDFQYTGHLHKSILIMATGEMFWTGTPVYKFCQTFILLPSSNGSTFDITNDIIRFISNSFKPYVLTDASLSQSNEENSVSAVEEDKIRHESGVEKEKEKEKSPEISKPKAKKETVKDTTAPTESSTQEKPIVDHSQPRAIPVTKESKIHTETVPSSTKGNHKQDEVSTEELGNVTKLNEKSHKAEKKAAPIKTKEGSVEAINAVNNSSLPNGKEVSDEKPVPGGVKEAETEIKPIEPQVSDAKESGNNASTPSSSPEPVANPPKMTWASKLMNENSDRISKNNTTVEYIRPETLPKKPTERKFEMGNRRDNASANSKNKKKPVFSTVNKDGFYPIYIRGTNGLREEKLRSALEKEFGKVMRITAADNFAVVDFETQKSQIDALEKKKKSIDGIEVCLERKTVKKPTSNNPPGIFTNGTRSHRKQPLKRKD", "partner": "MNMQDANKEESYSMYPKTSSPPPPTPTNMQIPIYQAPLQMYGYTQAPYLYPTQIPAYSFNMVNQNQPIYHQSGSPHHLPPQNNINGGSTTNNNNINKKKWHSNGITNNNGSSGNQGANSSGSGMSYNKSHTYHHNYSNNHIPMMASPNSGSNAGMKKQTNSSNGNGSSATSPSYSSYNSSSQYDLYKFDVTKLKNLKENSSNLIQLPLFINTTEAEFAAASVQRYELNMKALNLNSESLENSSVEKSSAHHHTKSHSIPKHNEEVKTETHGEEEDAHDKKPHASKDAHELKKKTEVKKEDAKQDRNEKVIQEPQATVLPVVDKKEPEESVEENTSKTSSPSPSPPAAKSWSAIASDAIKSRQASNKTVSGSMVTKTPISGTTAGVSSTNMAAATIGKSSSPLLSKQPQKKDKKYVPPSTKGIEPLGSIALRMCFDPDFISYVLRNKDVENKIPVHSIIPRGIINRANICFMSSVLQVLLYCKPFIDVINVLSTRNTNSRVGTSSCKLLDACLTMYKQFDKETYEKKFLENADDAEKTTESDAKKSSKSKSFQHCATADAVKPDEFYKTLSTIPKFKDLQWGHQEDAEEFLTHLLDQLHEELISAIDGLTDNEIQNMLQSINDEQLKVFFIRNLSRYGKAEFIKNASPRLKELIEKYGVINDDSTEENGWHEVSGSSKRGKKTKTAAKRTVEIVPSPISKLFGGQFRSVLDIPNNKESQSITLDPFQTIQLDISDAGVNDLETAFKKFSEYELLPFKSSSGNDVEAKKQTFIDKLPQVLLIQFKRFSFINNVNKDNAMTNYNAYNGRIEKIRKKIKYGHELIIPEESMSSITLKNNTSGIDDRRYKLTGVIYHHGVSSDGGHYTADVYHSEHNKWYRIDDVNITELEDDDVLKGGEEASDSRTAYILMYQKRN"}, "B2": {"name": "Ubiquitin carboxyl-terminal hydrolase 3 (Saccharomyces cerevisiae), Q01477 (parent)", "chain": "B1 partner", "partner": "B1 chain"}}}
{"variants_of": "B1", "conditions": "with ubp3_yeast UBP3, Q01477"}
{"variant": "MGVTVQDICFAFLQNYYERMRTDPSKLAYFYASTAELTHTNYQSKSTNEKDDVLPTVKVTGRENINKFFSRNDAKVRSLALKLDTIDFQYTGHLHKSILIMATGEMFWTGTPVYKFCQTFILLPSSNGSTFDITNDIIRFISNSFKPYVLTDASLSQSNEENSVSAVEEDKIRHESGVEKEKEKEKSPEISKPKAKKETVKDTTAPTESSTQEKPIVDHSQPRAIPVTKESKIHTETVPSSTKGNHKQDEVSTEELGNVTKLNEKSHKAEKKAAPIKTKEGSVEAINAVNNSSLPNGKEVSDEKPVPGGVKEAETEIKPIEPQVSDAKESGNNASTPSSSPEPVANPPKMTWASKLMNENSDRISKNNTTVEYIRPETLPKKPTERKFEMGNRRDNASANSKNKKKPVFSTVNKDGFYPIYIRGTNGLREEKLRSALEKEFGKVMRITAADNFAVVDFETQKSQIDALEKKKKSIDGIEVCLERKTVKKPTSNNPPGIFTNGTRSHRKQPLKRKD", "note": "[K80A]", "effect of a mutation on the interaction": "with no effect"}
{"variant": "MGVTVQDICFAFLQNYYERMRTDPSKLAYFYASTAELTHTNYQSKSTNEKDDVLPTVKVTGRENINKFFSRNDAKVRSLKLKLDTIDFQYTGHLHKSILIMATGAMFWTGTPVYKFCQTFILLPSSNGSTFDITNDIIRFISNSFKPYVLTDASLSQSNEENSVSAVEEDKIRHESGVEKEKEKEKSPEISKPKAKKETVKDTTAPTESSTQEKPIVDHSQPRAIPVTKESKIHTETVPSSTKGNHKQDEVSTEELGNVTKLNEKSHKAEKKAAPIKTKEGSVEAINAVNNSSLPNGKEVSDEKPVPGGVKEAETEIKPIEPQVSDAKESGNNASTPSSSPEPVANPPKMTWASKLMNENSDRISKNNTTVEYIRPETLPKKPTERKFEMGNRRDNASANSKNKKKPVFSTVNKDGFYPIYIRGTNGLREEKLRSALEKEFGKVMRITAADNFAVVDFETQKSQIDALEKKKKSIDGIEVCLERKTVKKPTSNNPPGIFTNGTRSHRKQPLKRKD", "note": "[E105A]", "effect of a mutation on the interaction": "with no effect"}
{"variant": "MGVTVQDICFAFLQNYYERMRTDPSKLAYFYASTAELTHTNYQSKSTNEKDDVLPTVKVTGRENINKFFSRNDAKVRSLKLALDTIDFQYTGHLHKSILIMATGEMFWTGTPVYKFCQTFILLPSSNGSTFDITNDIIRFISNSFKPYVLTDASLSQSNEENSVSAVEEDKIRHESGVEKEKEKEKSPEISKPKAKKETVKDTTAPTESSTQEKPIVDHSQPRAIPVTKESKIHTETVPSSTKGNHKQDEVSTEELGNVTKLNEKSHKAEKKAAPIKTKEGSVEAINAVNNSSLPNGKEVSDEKPVPGGVKEAETEIKPIEPQVSDAKESGNNASTPSSSPEPVANPPKMTWASKLMNENSDRISKNNTTVEYIRPETLPKKPTERKFEMGNRRDNASANSKNKKKPVFSTVNKDGFYPIYIRGTNGLREEKLRSALEKEFGKVMRITAADNFAVVDFETQKSQIDALEKKKKSIDGIEVCLERKTVKKPTSNNPPGIFTNGTRSHRKQPLKRKD", "note": "[K82A]", "effect of a mutation on the interaction": "with no effect"}
{"variant": "MGVTVQDICFAFLQNYAERMRTDPSKLAYFYASTAELTHTNYQSKSTNEKDDVLPTVKVTGRENINKFFSRNDAKVRSLKLKLDTIDFQYTGHLHKSILIMATGEMFWTGTPVYKFCQTFILLPSSNGSTFDITNDIIRFISNSFKPYVLTDASLSQSNEENSVSAVEEDKIRHESGVEKEKEKEKSPEISKPKAKKETVKDTTAPTESSTQEKPIVDHSQPRAIPVTKESKIHTETVPSSTKGNHKQDEVSTEELGNVTKLNEKSHKAEKKAAPIKTKEGSVEAINAVNNSSLPNGKEVSDEKPVPGGVKEAETEIKPIEPQVSDAKESGNNASTPSSSPEPVANPPKMTWASKLMNENSDRISKNNTTVEYIRPETLPKKPTERKFEMGNRRDNASANSKNKKKPVFSTVNKDGFYPIYIRGTNGLREEKLRSALEKEFGKVMRITAADNFAVVDFETQKSQIDALEKKKKSIDGIEVCLERKTVKKPTSNNPPGIFTNGTRSHRKQPLKRKD", "note": "[Y17A]", "effect of a mutation on the interaction": "with no effect"}
{"variants_of": "B1", "conditions": "with ubp3_yeast UBP3, Q01477", "remark": "another data set of the same source"}
{"variant": "MGVTVQDICFAFLQNYAERMRTDPSKLAYFYASTAELTHTNYQSKSTNEKDDVLPTVKVTGRENINKFFSRNDAKVRSLKLALDTIDFQYTGHLHKSILIMATGEMFWTGTPVYKFCQTFILLPSSNGSTFDITNDIIRFISNSFKPYVLTDASLSQSNEENSVSAVEEDKIRHESGVEKEKEKEKSPEISKPKAKKETVKDTTAPTESSTQEKPIVDHSQPRAIPVTKESKIHTETVPSSTKGNHKQDEVSTEELGNVTKLNEKSHKAEKKAAPIKTKEGSVEAINAVNNSSLPNGKEVSDEKPVPGGVKEAETEIKPIEPQVSDAKESGNNASTPSSSPEPVANPPKMTWASKLMNENSDRISKNNTTVEYIRPETLPKKPTERKFEMGNRRDNASANSKNKKKPVFSTVNKDGFYPIYIRGTNGLREEKLRSALEKEFGKVMRITAADNFAVVDFETQKSQIDALEKKKKSIDGIEVCLERKTVKKPTSNNPPGIFTNGTRSHRKQPLKRKD", "note": "[Y17A;K82A]", "effect of a mutation on the interaction": "decreasing interaction strength"}
{"variants_of": "B2", "conditions": "with bre5_yeast BRE5, P53741"}
{"variant": "N211A", "effect of a mutation on the interaction": "decreasing interaction strength"}
{"variant": "I210A", "effect of a mutation on the interaction": "decreasing interaction strength"}
{"variant": "E216A", "effect of a mutation on the interaction": "with no effect"}
{"variant": "T212A", "effect of a mutation on the interaction": "with no effect"}
{"variant": "F209A", "effect of a mutation on the interaction": "with no effect"}
{"variant": "I210A;F217A", "effect of a mutation on the interaction": "decreasing interaction strength"}
{"variant": "L208A;F209A", "effect of a mutation on the interaction": "decreasing interaction strength"}
{"variant": "R224A", "effect of a mutation on the interaction": "with no effect"}
{"variant": "L208A;F209A;I210A;N211A", "effect of a mutation on the interaction": "decreasing interaction strength"}
{"variant": "F217A", "effect of a mutation on the interaction": "with no effect"}
{"variant": "L208A;F209A;I210A;N211A;F217A", "effect of a mutation on the interaction": "disrupting interaction strength"}
{"variant": "L208A", "effect of a mutation on the interaction": "with no effect"}
{"variant": "N211A;F217A", "effect of a mutation on the interaction": "decreasing interaction strength"}
{"variant": "E214A", "effect of a mutation on the interaction": "with no effect"}
